# Results: US20120207788A1 (BIOMAY, published 2012)
# Target: serum IgE from grass pollen allergic patients
# Assay: cell-based or functional assay
row,Binder,CD203c expression on human basophils isolated from grass pollen allergic patients
1,hybrid molecule C (other) MGAASNKAFAEGLSGEPKGAAESSSKAALTSKLDAAYKLAYKTAEGATPEAKYDAYVATLSEALRIIAGTLEVHAVKPAADLGYGPATPAAPAAGYTPATPAAPAEAAPAGKATTEEQKLIEKINAGFKAALAAAAGVQPADKYRTFVATFSGRGCGSCFEIKCTKPEACSGEPVVVHITDDNEEPIAPYHFDLSGHAFGAMAKKGDEQKLRTGPFTVRYTTEGGTKTEAEDVIPEGWKADTSYESKHHHHHH,10 fold
2,hybrid molecule B (other) MAVKQAYAATVATAPEVKYTVFETALKKAITAMSEAQKAAKPAAAATATATAAVGAATGAATAATGGYKVAEEVKVIPAGELQVIEKVDAAFKVAATAANAAPANDKFTVFEAAFNDAIKASTGGAYESYKFIPALEAIPKVPPGPNITATYGDKWLDAKSTWYGKPTGAGPKDNGGACGYKDVDKPPFSGMTGCGNTPIFKSAGELELQFRRVKCKYPEGTKVTFHVEKGSNPNYLALLVKYVNGDGDVVAVDIKEKGKDKWIELKESWGAIWRIDTPDKLHHHHHH,10 fold

# Now from value to binder:
row,CD203c expression on human basophils isolated from grass pollen allergic patients,Binder
1,10 fold,hybrid molecule Q (other) MFRFLTEKGMKNVFDDVVPEKYTIGATYAPEEDEWVAMTKGEGGVWTFDSEEPLQGPFNADKYKTFEAAFTVSSKRNLADAVSKAPQLVPKLDEVYNAAYNAADHAAPEDKYEAFVLHFSEALRIIAGTPEVHAVKPGAVPKVTFTVEKGSNEKHLAVLVKYEGDTMAEVELREHGSHHHHHH
2,10 fold,hybrid molecule P (other) MGAASNKAFAEGLSGEPKGAAESSSKAALTSKLDAAYKLAYKTAEGATPEAKYDAYVATLSEALRIIAGTLEVHAVKPAADLGYGPATPAAPAAGYTPATPAAPAEAAPAGKATTEEQKLIEKINAGFKAALAAAAGVQPADKYRTFVATFSGRGCGSCFEIKCTKPEACSGEPVVVHITDDNEEPIAPYHFDLSGHAFGAMAKKGDEQKLRTGPFTVRYTTEGGTKTEAEDVIPEGWKADTSYESKAEEVKVIPAGELQVIEKVDAAFKVAATAANAAPAAVKQAYAATVATAPEVKYTVFETALKKAITAMSEAQKAAKPAAAATATATAAVGAATGAATAATGGYKVNDKFTVFEAAFNDAIKASTGGAYESYKFIPALEAIPKVPPGPNITATYGDKWLDAKSTWYGKPTGASAGELELQFRRVKCKYPEGTKVTFHVEKGSNPNYLALLVKYVNGDGDVVAVDIKEKGKDKWIELKESWGAIWRIDTPDKLGPKDNGGACGYKDVDKPPFSGMTGCGNTPIFKHHHHHH
